Data taken from US20180030119A1 (published 2018).

How the values were obtained:
[1] = target: F protein of clinical RSV isolate #1, on virus; assay: cell-based or functional assay
[2] = target: T1, RSV F protein as coated in the ELISA of Example 3 (RSV-EIA antigen by the legend of FIG. 6) (RSV, strain ); assay: ELISA, serial dilutions of purified AR201 on coated antigen, anti-human IgG-HRP, four parameter fit
T1 construct: also called total RSV antigen (EIA-antigen)

B1: AR201 (antibody, V domains shown)
VH: LVQLRESGPGLVKPSQTLSLTCSVSGASINLYDYFWGWIRQAPGRGPEWIGYISGSTYYNPSLKRRATISVDTSKSQFFLELTSVTAADTAVYYCARDVGWGPQYYYGLDVWGQGTTVTVSS
VL: DLVLTQSPGTLSLSPGERATLSCRASHSVQSTSLAWYQQKRGQAPRLLIYGGSSRVTGIPDRFSGSGSGTDFTLTISRLEPEDFAVYYCQQSDRSPPITFGQGTRLEMK
notes: Fully human IgG1, kappa; 1 and 3 are used here; also called KBRV201
[1]
  IC50 of neutralisation, infectivity assay on Hep2 cells: 1700 nM
[2]
  EC50: 0.103 nM
